Source: patent publication US10494415B2, “Insulin-like growth factor 2 (IGF2) binding agents” (Cancer Research Technology Limited, priority 2015, dated 2019)
“Also recorded” adds a separate entry of the source. Marks after values point to notes of the source that are not given here.

Columns and labels:
[1] = tested on: IGF2^1-67-induced hypoglycaemia; test: IGF2-induced hypoglycaemia mouse model; assay type: in vivo
Source text: All animal experiments were approved by the animal use ethical committee of Oxford University and fully complied with UK Home Office guidelines (PPL 30/2695). Wild-type C57BL/6J and 129S2 mice were used throughout. Mice were anaesthetised using a rising concentration of isoflurane in oxygenated air and maintained using 2% isoflurane with 2 L min^−1 oxygen. Blood glucose measurements were taken using an Advantage diabetic glucose meter (Roche Diagnostics, Burgess Hill, UK). In order to test the direct inhibition of IGF2-induced hypoglycaemia by Fc-domain 11^AB5, blood glucose levels were allowed to normalise for 30 min prior to taking a baseline blood glucose reading, then either 1 mg kg^−1 IGF2 only (R&D systems), […], Fc-domain 11^RHH, or Fc-domain 11^I1572A ([…]) was injected. Blood glucose measurements were taken every 10 min for the following hour. For the Fc-domain 11^AB5 mouse preloading experiment, 11.7 mg kg^−1 Fc-domain 11^AB5 or PBS, as negative control, was injected immediately after induction of anaesthesia, 30 mins later a baseline blood glucose reading was taken and 1 mg kg^−1 IGF2 ([…]) was injected, readings were then taken every 10 min for the following hour. For the mouse IGF2 preloading experiment, 1 mg kg^−1 IGF2 was injected immediately after induction of anaesthesia, 30 min later a baseline blood glucose reading was taken and either 11.7 mg kg^−1 Fc-domain 11^AB5 ([…]) or PBS was injected, readings were then taken every 10 min for the following hour.

Huh7 cells = test: Apoptosis in hepatocellular carcinoma cells; assay type: cell-based, human
IGF2^1-156 = molecular target: T1, IGF2^1-156 (Homo sapiens, UniProt P01344); test: SPR of IGF forms on Fc-domain 11 proteins immobilised by antibody capture; assay type: binding; settings: for Kinetics koff: HBS-EP pH 7.4; for Kinetics kon: may be inaccurate (mixture of three isoforms)
T1 construct: pro-IGF2^1-156 [17 kDa]
Procedure: (§1) SPR analysis of the interaction of recombinant IGF1 and IGF2 forms with Fc-domain 11 proteins immobilised by antibody capture (CM5 chip containing monoclonal mouse anti-human IgG antibody immobilised by amine coupling). Measurements were carried out at 25° C. in HBS-EP buffer (pH 7.4).
(§2) Final kinetic analysis of mutants by SPR was conducted using a Biacore T200 biosensor at 25° C. in either HBS-EP (10 mM HEPES pH 7.4, 150 mM NaCl, 3 mM EDTA, and 0.005% (v/v) surfactant P20) or MES-EP (20 mM MES pH 6.5, 150 mM NaCl, 3 mM EDTA, and 0.005% (v/v) surfactant P20) at a flow-rate of 40 μL min^−1. […] For the analysis of the Fc-domain 11^AB5 interaction, approximately 50 RU of a biotinylated IGF2:biotinylated ubiquitin mixture (1:8 proportion) was immobilized on the CM5-streptavidin chip. This interaction was also analysed by immobilizing the Fc-domain 11^AB5 and Fc-domain 11^AB5-RHH (or Fc-domain 11^I1572A as control) by Human Antibody Capture (monoclonal mouse anti-human IgG antibody immobilised on a CM5 chip by amine coupling, GE Healthcare) with and without human IgG1 Fc fragment (Bethyl Laboratories, UK) in the control flow cell. Increasing concentrations of IGF2^1-67, proIGF2^1-104, proIGF2^1-156 and IGF1 ranging from 0.125 to 32 nM were injected. T200 BiaEvaluation software (GE Healthcare) was used to fit the resulting curves according to a 1:1 binding model. Steady state affinities were determined using the kinetic data, taking the response average at 5 seconds before injection end and for 5 seconds average. Thermodynamic data was performed across the temperature range of 10° C. to 30° C., van't Hoff and Erying plots generated and ΔH, −TΔS and ΔG values determined as previously described.

IGF2^1-67 = molecular target: T2, IGF2^1-67 (Homo sapiens, UniProt P01344); test: as above; assay type: binding; settings: HBS-EP pH 7.4
T2 construct: Recombinant mature (IGF2^1-67 [7.5 kDa]
Procedure: as §1, §2

IGF2^1-104 = molecular target: T3, IGF2^1-104 (Homo sapiens, UniProt P01344); test: as above; assay type: binding; settings: HBS-EP pH 7.4
T3 construct: pro-IGF2 (pro-IGF2^1-104 [11 kDa]
Procedure: as §1, §2

Hep3B cells = test: Cell proliferation assay (EdU incorporation); assay type: cell-based, human; settings: relative to OSI-06
Procedure: EdU incorporation was used to measure cell proliferation (Invitrogen, C10338). Briefly, cells were plated at a density of 2×10^5 cells/well in 6-well plates and cultured in serum free media. After 24 hr of serum starvation, PBS (black) and 1.5 μM Fc-domain 11^I1572 (grey) as negative controls, 0.5 and 1.5 μM Fc-domain 11^AB5 (orange), 1 μM OSI-906 (purple) and 0.1 and 0.5 μM doxycycline (green) as positive controls were added to the different wells and cells were further cultured. After 48 hr, 10 μM EdU was added for 3 hr and cells were then washed and trypsinised, followed by fixation in 4% PFA and permeabilisation in TBS/5% Triton. The Alexa 555 dye was then attached to the EdU molecules by click chemistry following the manufacturer's instructions and the % of EdU incorporation under different conditions was then analysed by flow cytometry.

Hep 3B2.1-7 cells = test: In vitro cell viability (CellTiter 96 AQueous); assay type: cell-based, human; settings: cell line not specified in the sentence (FIG. 10: Hep3B, Huh7)
Procedure: The human hepatocellular carcinoma cell lines Hep 3B2.1-7 and Huh-7D12 were obtained from the ATCC (HB-8065) and the ECACC (Catalogue number 1042712), respectively. Hep 3B2.1-7 was grown in EMEM (Lonza) supplemented with 10% (v/v) fetal bovine serum, 100 U mL-1 penicillin, 100 μg mL-1 streptomycin, and 2 mM Lglutamine Huh-7D12 was grown in DMEM (Sigma) supplemented with 10% fetal bovine serum, 100 U mL-1 penicillin, 100 μg mL-1 streptomycin, and 2 mM L-glutamine. Cells were plated in 96-well plates at a density of 1-2×10^4 cells/well in serum free medium. After 24 hr, Fc-domain 11^AB5 (orange), Fc-domain 11^I1572A as negative control (grey) or OSI-906 (purple) were added to each well to different final concentrations and the cells were incubated for further 48-72 hr. Cell viability was assayed at 48 and 72 hr after Fc-domain 11^AB5 treatment using the CellTiter 96® AQueous Non-Radioactive Cell Proliferation Assay (Promega). The half maximal inhibitory concentration (IC50) was calculated using graph prism.

IGF1 = IGF1 (Homo sapiens, UniProt P05019); test: SPR of domain 11 mutants on immobilised biotinylated IGF1 (specificity); assay type: binding
Source text: Surface plasmon resonance (SPR) binding analysis of recombinant M6P/IGF2R domain 11 mutants interaction with IGF2. Kon indicates association (on) rate; koff, dissociation (off) rate; RU, response units. Binding to IGF2 assessed with BIAcore T200 using purified biotinylated IGF2 and IGF1 on a streptavidin biosensor chip. Recombinant proteins were expressed either in E. coli and/or P. pastoris. All the mutants in the FG and CD loops are on the domain 11^AB5 background for the AB loop unless otherwise stated. All experiments were carried out at 25° C. in HBS-EP buffer (pH 7.4), were repeated 2-5 times on two independent BIAcore chips. nd=not determined. Data for KD expressed as mean of each experiment, and means of kon and koff are shown.
Final kinetic analysis of mutants by SPR was conducted using a Biacore T200 biosensor at 25° C. in either HBS-EP (10 mM HEPES pH 7.4, 150 mM NaCl, 3 mM EDTA, and 0.005% (v/v) surfactant P20) or MES-EP (20 mM MES pH 6.5, 150 mM NaCl, 3 mM EDTA, and 0.005% (v/v) surfactant P20) at a flow-rate of 40 μL min^−1. […] This interaction was also analysed by immobilizing the Fc-domain 11^AB5 and Fc-domain 11^AB5-RHH (or Fc-domain 11^I1572A as control) by Human Antibody Capture (monoclonal mouse anti-human IgG antibody immobilised on a CM5 chip by amine coupling, GE Healthcare) with and without human IgG1 Fc fragment (Bethyl Laboratories, UK) in the control flow cell. […]

IGF2 = IGF2 (Homo sapiens, UniProt P01344); test: SPR (Biacore T200) of recombinant IGF2R domain 11 mutants on immobilised biotinylated IGF2; assay type: binding; parameters: purchased GroPep
Procedure, shortened: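 Biotinylated IGF2 (or IGF1) captured on streptavidin chip; domain 11 mutants (E. coli or P. pastoris, AB5 background) injected at 25 °C, 40 μL/min, in HBS-EP pH 7.4 or MES-EP pH 6.5. kon/koff from 1:1 fit; KD as mean of 2-5 repeats.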

[2] = pre-loading, co-injection or post-loading

T3 sequence (P01344 25-128): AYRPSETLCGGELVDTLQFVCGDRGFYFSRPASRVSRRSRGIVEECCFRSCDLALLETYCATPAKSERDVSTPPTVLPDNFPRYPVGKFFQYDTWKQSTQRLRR
T1 sequence (P01344 25-180): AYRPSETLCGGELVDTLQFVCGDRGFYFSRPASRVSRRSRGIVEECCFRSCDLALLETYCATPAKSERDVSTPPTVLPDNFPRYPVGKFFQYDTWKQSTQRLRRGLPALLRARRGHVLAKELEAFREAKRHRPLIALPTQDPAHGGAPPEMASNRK
Chain of IGF2 (P01344 25-91): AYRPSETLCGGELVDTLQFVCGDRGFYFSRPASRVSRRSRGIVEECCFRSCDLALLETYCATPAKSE
T2 sequence (P01344 25-91): as above
Chain of IGF1 (P05019 49-118): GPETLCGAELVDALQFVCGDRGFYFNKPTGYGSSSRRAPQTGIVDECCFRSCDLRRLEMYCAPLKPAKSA

Row | Kinetics koff (IGF2^1-156) | Kinetics kon (IGF2^1-156) | Kinetics koff (IGF2^1-67) | Kinetics kon (IGF2^1-67) | Kinetics koff (IGF2^1-104) | Kinetics kon (IGF2^1-104) | IGF2 specificity with respect to IGF1 (IGF1) | Kinetics koff (IGF2; Table 1, 25° C., HBS-EP pH 7.4) | Kinetics kon (IGF2; Table 1, 25° C., HBS-EP pH 7.4) | Kinetics koff (IGF2; Table 3, 25° C., HBS-EP pH 7.4) | Kinetics kon (IGF2; Table 3, 25° C., HBS-EP pH 7.4) | Kinetics koff (IGF2; Table 4, MES-EP pH 6.5) | Kinetics kon (IGF2; Table 4, MES-EP pH 6.5) | Molecule | IGF2-induced hypoglycaemia (blood glucose) ([1]; administered 30 min after 1 mg kg^−1 IGF2^1-67) | IGF2-induced hypoglycaemia (blood glucose) [1, 2] | IGF2-induced hypoglycaemia (blood glucose) ([1]; preloading 30 min before 1 mg kg^−1 IGF2^1-67) | IGF2-induced hypoglycaemia (blood glucose) ([1]; premixed / co-injected with 1 mg kg^−1 IGF2^1-67, molar ratio 1:1) | Apoptosis (Huh7 cells) | Proliferation (Hep3B cells) | Inhibitory effect on cell lines (Hep 3B2.1-7 cells)
1 | 0.0009 s⁻¹ | 4.19* ×10^6 M^−1s^−1 | 0.025 s⁻¹ | 6.47e+06 M⁻¹ s⁻¹ | 0.0069 s⁻¹ | 1.287e+07 M⁻¹ s⁻¹ | – | – | – | – | – | – | – | Fc-domain 11^AB5: human IgG1 Fc-fusion of domain 11^AB5 (protein, left off: a dimerising Fc or GST, human IgG1 Fc-fusion of domain 11^AB5) NEHDDCQVTNPSTGHLFDLSSLSGRAGFTAAYAKGWGVYMSICGENENCPPGVGACFGQTRISVGKANKRLRYVDQVLQLVYKDGSPCPSKSGLSYKSVISFVCRPEAGPTNRPMLISLDKQTCTLFFSWHTPLACEQAT | can reverse IGF2-induced hypoglycaemia | significant abrogation of the hypoglycaemic effects | protects against IGF2-induced hypoglycaemia | abrogation; also recorded: prevents IGF2-induced hypoglycaemia | promoted | inhibited | –
2 | 0.0008 s⁻¹ | 0.29* ×10^6 M^−1s^−1 | – | – | 0.002 s⁻¹ | 520000 M⁻¹ s⁻¹ | – | – | – | – | – | – | – | Fc-domain 11^I1572A: low binder Fc-domain 11 fusion with I1572A, non-IGF2 binding control (protein, left off: a dimerising Fc or GST) NEHDDCQVTNPSTGHLFDLSSLSGRAGFTAAYSEKGLVYMSICGENENCPPGVGACFGQTRASVGKANKRLRYVDQVLQLVYKDGSPCPSKSGLSYKSVISFVCRPEAGPTNRPMLISLDKQTCTLFFSWHTPLACEQAT | – | not detected | – | – | – | – | no effect
3 | – | – | – | – | – | – | retained IGF2 specificity | 0.0208 s⁻¹ | 4.21e+06 M⁻¹ s⁻¹ | 0.0208 s⁻¹ | 4.21e+06 M⁻¹ s⁻¹ | 0.0180 s⁻¹ | 4.17e+06 M⁻¹ s⁻¹ | AB5: IGF2R domain 11 with five AB loop mutations S1543A, E1544K, K1545G, G1546W, L1547G (YAKGWG) (protein) MKSNEHDDCQVTNPSTGHLFDLSSLSGRAGFTAAYAKGWGVYMSICGENENCPPGVGACFGQTRISVGKANKRLRYVDQVLQLVYKDGSPCPSKSGLSYKSVISFVCRPEAGPTNRPMLISLDKQTCTLFFSWHTPLACEQATECSV | – | – | – | – | – | – | –
